Publication PMC5847621 (2018)

Target: T1, VSV Gth, soluble form of the ectodomain of VSV glycoprotein G (residues 1-422) (Vesicular stomatitis virus (Mudd-Summer …, UniProt P0C2X0 17-438))
T1 chain: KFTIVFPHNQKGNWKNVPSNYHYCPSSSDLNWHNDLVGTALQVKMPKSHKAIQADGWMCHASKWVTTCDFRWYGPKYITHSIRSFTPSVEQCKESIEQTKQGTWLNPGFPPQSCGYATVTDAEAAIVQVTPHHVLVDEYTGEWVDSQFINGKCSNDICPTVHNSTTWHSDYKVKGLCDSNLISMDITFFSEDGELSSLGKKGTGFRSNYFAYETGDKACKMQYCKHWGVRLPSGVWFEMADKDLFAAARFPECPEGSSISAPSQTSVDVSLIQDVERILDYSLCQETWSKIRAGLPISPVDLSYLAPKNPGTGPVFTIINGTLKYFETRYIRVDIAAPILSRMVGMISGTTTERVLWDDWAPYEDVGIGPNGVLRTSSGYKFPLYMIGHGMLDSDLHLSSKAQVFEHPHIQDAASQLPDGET
Test: ITC

B1: LDL-R CR3 domain, isolated (GST cleaved off) (domain or fragment)
chain: not shown
B1 was tested, and the Kd was 3.75 µM.
